Experimental data: patent US20240294646A1
pKd: −log10 of the molar value.

Legend:
FcγRIIaR [1] = target: FcγRIIaR (UniProt P12318); assay: SPR; trastuzumab FSA variant against FSA WT v21653
FcγRIIb [2] = target: FcγRIIb (UniProt P31994); assay: SPR; trastuzumab FSA variant against FSA WT v21653
Target sequence in this assay (P31994 43-217): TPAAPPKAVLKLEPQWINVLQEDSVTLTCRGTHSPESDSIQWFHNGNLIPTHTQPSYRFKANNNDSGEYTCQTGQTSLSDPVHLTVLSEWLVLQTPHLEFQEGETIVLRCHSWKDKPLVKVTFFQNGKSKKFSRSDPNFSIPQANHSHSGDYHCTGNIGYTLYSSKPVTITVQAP

C1q (human) = C1q (human) (UniProt P02745); assay: ELISA; antibody coated, human C1q added, signal as % of WT
FcγRIIb [3] = target: FcγRIIb (UniProt P31994); assay: SPR; ratio of IIb-fold to IIaR-fold, FcγRIIaR as comparison receptor
Target sequence in this assay (P31994 43-217): as above

FcγRIIb [4] = target: FcγRIIb (UniProt P31994); assay: SPR (Protocol 1); IIb-Fold over IIaR-Fold
Target sequence in this assay (P31994 43-217 limits assumed): as the sequence (P31994 43-217) above

FcγRIIaR [5] = target: FcγRIIaR (UniProt P12318); assay: SPR (Protocol 1), one-armed antibody captured on HER2, receptor as analyte; fold over wild-type
FcγRIIb [6] = target: FcγRIIb (UniProt P31994); assay: as above
Target sequence in this assay (P31994 43-217 limits assumed): as the sequence (P31994 43-217) above

[7] = target: FcγRIIaR, soluble extracellular domain (UniProt P12318); assay: SPR (Biacore 4000, Protocol 2): antibody captured on immobilised HER2, soluble receptor as analyte
Sequence of FcγRIIaR, soluble extracellular domain (P12318 34-217): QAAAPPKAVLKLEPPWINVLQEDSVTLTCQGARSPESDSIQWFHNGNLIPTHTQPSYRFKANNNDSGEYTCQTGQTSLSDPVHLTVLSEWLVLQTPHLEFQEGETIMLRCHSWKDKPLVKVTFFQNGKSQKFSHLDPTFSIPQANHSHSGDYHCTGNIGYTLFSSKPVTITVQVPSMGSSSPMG

[8] = target: FcγRIIb, soluble extracellular domain (UniProt P31994); assay: as above
Sequence of FcγRIIb, soluble extracellular domain (P31994 43-217): as the sequence (P31994 43-217) above

Sequence of FcγRIIaR (P12318 34-217): as the sequence (P12318 34-217) above
Sequence of C1q (human) (P02745 23-245 limits assumed, chain 1 of 3): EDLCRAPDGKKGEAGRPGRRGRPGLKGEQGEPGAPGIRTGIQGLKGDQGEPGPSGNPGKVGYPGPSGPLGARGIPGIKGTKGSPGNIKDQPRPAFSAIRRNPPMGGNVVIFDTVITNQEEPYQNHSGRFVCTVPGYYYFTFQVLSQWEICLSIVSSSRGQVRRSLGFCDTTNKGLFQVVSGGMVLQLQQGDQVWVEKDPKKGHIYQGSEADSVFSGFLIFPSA
Sequence of C1q (human) (P02746 28-253 limits assumed, chain 2 of 3, further chain): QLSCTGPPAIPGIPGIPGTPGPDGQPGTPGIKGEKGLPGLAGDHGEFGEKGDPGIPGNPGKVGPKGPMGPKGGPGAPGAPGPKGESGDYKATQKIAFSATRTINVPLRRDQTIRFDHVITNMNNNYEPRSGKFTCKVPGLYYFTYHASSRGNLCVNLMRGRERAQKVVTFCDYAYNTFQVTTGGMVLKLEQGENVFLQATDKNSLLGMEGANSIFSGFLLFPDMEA
Sequence of C1q (human) (P02747 29-245 limits assumed, chain 3 of 3, further chain): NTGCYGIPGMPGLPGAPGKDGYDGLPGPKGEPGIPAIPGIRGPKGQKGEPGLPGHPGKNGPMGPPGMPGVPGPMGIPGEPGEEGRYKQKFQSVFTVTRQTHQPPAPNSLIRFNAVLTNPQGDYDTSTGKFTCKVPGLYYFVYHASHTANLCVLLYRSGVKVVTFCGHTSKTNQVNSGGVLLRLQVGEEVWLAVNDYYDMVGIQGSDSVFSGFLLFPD

## Variant 32272 (trastuzumab FSA; chain A K330T_strat2, chain B G237L_strat2) (antibody)
FcγRIIaR [1]
  IIaR-fold (fold change in affinity over wild-type): 9 fold over WT
FcγRIIb [2]
  IIb-fold (fold change in affinity over wild-type): 164 fold over WT
C1q (human)
  C1q Binding (% WT): 3 % WT
FcγRIIb [3]
  IIb Selectivity (IIb-Fold/IIaR-Fold): 18

## Variant 32254 (trastuzumab FSA; chain A S239H_strat1, chain B D329*I_F328*Y_strat1) (antibody)
FcγRIIaR [1]
  IIaR-fold (fold change in affinity over wild-type): 3 fold over WT
FcγRIIb [2]
  IIb-fold (fold change in affinity over wild-type): 159 fold over WT
C1q (human)
  C1q Binding (% WT): 159 % WT
FcγRIIb [3]
  IIb Selectivity (IIb-Fold/IIaR-Fold): 47

## variant 16549, one-armed trastuzumab antibody (Scaffold 2), chain B E269K_L234D
FcγRIIb [4]
  IIb/IIaR Selectivity: 1.83
FcγRIIaR [5]
  IIaR-Fold (fold affinity over wild-type): 0.19 fold
FcγRIIb [6]
  IIb-Fold (fold affinity over wild-type): 0.35 fold

## Variant 32264 (trastuzumab FSA; chain A L235D_strat1, chain B G330*K_strat1) (antibody)
FcγRIIaR [1]
  IIaR-fold (fold change in affinity over wild-type): 17 fold over WT
FcγRIIb [2]
  IIb-fold (fold change in affinity over wild-type): 557 fold over WT
C1q (human)
  C1q Binding (% WT): 146 % WT
FcγRIIb [3]
  IIb Selectivity (IIb-Fold/IIaR-Fold): 33

## variant 16570, one-armed trastuzumab antibody (Scaffold 2), chain B E269K_L234F
FcγRIIb [4]
  IIb/IIaR Selectivity: 3.35
FcγRIIaR [5]
  IIaR-Fold (fold affinity over wild-type): 0.11 fold
FcγRIIb [6]
  IIb-Fold (fold affinity over wild-type): 0.37 fold

## variant 16576, one-armed trastuzumab antibody (Scaffold 2), chain B E269K_A327G_A330S_P331S_L234F_H268Q_K274Q
FcγRIIb [4]
  IIb/IIaR Selectivity: 1.89
FcγRIIaR [5]
  IIaR-Fold (fold affinity over wild-type): 0.11 fold
FcγRIIb [6]
  IIb-Fold (fold affinity over wild-type): 0.21 fold

## Variant 32267 (trastuzumab FSA; chain A S239H_strat1, chain B G330*K_strat1) (antibody)
FcγRIIaR [1]
  IIaR-fold (fold change in affinity over wild-type): 25 fold over WT
FcγRIIb [2]
  IIb-fold (fold change in affinity over wild-type): 803 fold over WT
C1q (human)
  C1q Binding (% WT): 201 % WT
FcγRIIb [3]
  IIb Selectivity (IIb-Fold/IIaR-Fold): 33

## Variant 32266 (trastuzumab FSA; chain A S239G_strat1, chain B G330*K_strat1) (antibody)
FcγRIIaR [1]
  IIaR-fold (fold change in affinity over wild-type): 30 fold over WT
FcγRIIb [2]
  IIb-fold (fold change in affinity over wild-type): 1150 fold over WT
C1q (human)
  C1q Binding (% WT): 219 % WT
FcγRIIb [3]
  IIb Selectivity (IIb-Fold/IIaR-Fold): 38

## variant 16531, one-armed trastuzumab antibody (Scaffold 2), chain B E269K_S267I
FcγRIIb [4]
  IIb/IIaR Selectivity: 1.45
FcγRIIaR [5]
  IIaR-Fold (fold affinity over wild-type): 0.19 fold
FcγRIIb [6]
  IIb-Fold (fold affinity over wild-type): 0.27 fold

## Variant 32276 (trastuzumab FSA; chain A P329V_strat2, chain B G237L_strat2) (antibody)
FcγRIIaR [1]
  IIaR-fold (fold change in affinity over wild-type): 4 fold over WT
FcγRIIb [2]
  IIb-fold (fold change in affinity over wild-type): 94 fold over WT
C1q (human)
  C1q Binding (% WT): 3 % WT
FcγRIIb [3]
  IIb Selectivity (IIb-Fold/IIaR-Fold): 24

## variant 16491, one-armed trastuzumab antibody (Scaffold 2), chain B E269K_G236N
FcγRIIb [4]
  IIb/IIaR Selectivity: 2.48
FcγRIIaR [5]
  IIaR-Fold (fold affinity over wild-type): 0.1 fold
FcγRIIb [6]
  IIb-Fold (fold affinity over wild-type): 0.24 fold

## Variant 32262 (trastuzumab FSA; chain A L234T_strat1, chain B G330*K_strat1) (antibody)
FcγRIIaR [1]
  IIaR-fold (fold change in affinity over wild-type): 22 fold over WT
FcγRIIb [2]
  IIb-fold (fold change in affinity over wild-type): 697 fold over WT
C1q (human)
  C1q Binding (% WT): 210 % WT
FcγRIIb [3]
  IIb Selectivity (IIb-Fold/IIaR-Fold): 31

## Variant 32274 (trastuzumab FSA; chain A P329A_strat2, chain B G237L_strat2) (antibody)
FcγRIIaR [1]
  IIaR-fold (fold change in affinity over wild-type): 4 fold over WT
FcγRIIb [2]
  IIb-fold (fold change in affinity over wild-type): 95 fold over WT
C1q (human)
  C1q Binding (% WT): 2 % WT
FcγRIIb [3]
  IIb Selectivity (IIb-Fold/IIaR-Fold): 26

## variant 16532, one-armed trastuzumab antibody (Scaffold 2), chain A E269K, chain B S267I
FcγRIIb [4]
  IIb/IIaR Selectivity: 1.84
FcγRIIaR [5]
  IIaR-Fold (fold affinity over wild-type): 0.51 fold
FcγRIIb [6]
  IIb-Fold (fold affinity over wild-type): 0.95 fold

## variant 16488, one-armed trastuzumab antibody (Scaffold 2), chain B E269K_G236D
FcγRIIb [4]
  IIb/IIaR Selectivity: 0.91
FcγRIIaR [5]
  IIaR-Fold (fold affinity over wild-type): 0.17 fold
FcγRIIb [6]
  IIb-Fold (fold affinity over wild-type): 0.16 fold

## variant 16492, one-armed trastuzumab antibody (Scaffold 2), chain A E269K, chain B G236N
FcγRIIb [4]
  IIb/IIaR Selectivity: 1.83
FcγRIIaR [5]
  IIaR-Fold (fold affinity over wild-type): 0.07 fold
FcγRIIb [6]
  IIb-Fold (fold affinity over wild-type): 0.13 fold

## Variant 32265 (trastuzumab FSA; chain A S239A_strat1, chain B G330*K_strat1) (antibody)
FcγRIIaR [1]
  IIaR-fold (fold change in affinity over wild-type): 36 fold over WT
FcγRIIb [2]
  IIb-fold (fold change in affinity over wild-type): 1120 fold over WT
C1q (human)
  C1q Binding (% WT): 224 % WT
FcγRIIb [3]
  IIb Selectivity (IIb-Fold/IIaR-Fold): 31

## variant 16489, one-armed trastuzumab antibody (Scaffold 2), chain A E269K, chain B G236D
FcγRIIb [4]
  IIb/IIaR Selectivity: 2.1
FcγRIIaR [5]
  IIaR-Fold (fold affinity over wild-type): 0.41 fold
FcγRIIb [6]
  IIb-Fold (fold affinity over wild-type): 0.85 fold

## Variant 32279 (trastuzumab FSA; chain A S267K_strat2, chain B G237L_strat2) (antibody)
FcγRIIaR [1]
  IIaR-fold (fold change in affinity over wild-type): 3 fold over WT
FcγRIIb [2]
  IIb-fold (fold change in affinity over wild-type): 53 fold over WT
C1q (human)
  C1q Binding (% WT): 1 % WT
FcγRIIb [3]
  IIb Selectivity (IIb-Fold/IIaR-Fold): 19

## Variant 32259 (trastuzumab FSA; chain A A237N_strat1, chain B G330*K_strat1) (antibody)
FcγRIIaR [1]
  IIaR-fold (fold change in affinity over wild-type): 14 fold over WT
FcγRIIb [2]
  IIb-fold (fold change in affinity over wild-type): 452 fold over WT
C1q (human)
  C1q Binding (% WT): 192 % WT
FcγRIIb [3]
  IIb Selectivity (IIb-Fold/IIaR-Fold): 33

## variant 16571, one-armed trastuzumab antibody (Scaffold 2), chain A E269K, chain B L234F
FcγRIIb [4]
  IIb/IIaR Selectivity: 0.97
FcγRIIaR [5]
  IIaR-Fold (fold affinity over wild-type): 0.42 fold
FcγRIIb [6]
  IIb-Fold (fold affinity over wild-type): 0.4 fold

## Variant 32258 (trastuzumab FSA; chain A A237L_strat1, chain B G330*K_strat1) (antibody)
FcγRIIaR [1]
  IIaR-fold (fold change in affinity over wild-type): 11 fold over WT
FcγRIIb [2]
  IIb-fold (fold change in affinity over wild-type): 476 fold over WT
C1q (human)
  C1q Binding (% WT): 201 % WT
FcγRIIb [3]
  IIb Selectivity (IIb-Fold/IIaR-Fold): 44

## Variant 26735 (A_P271Y_strat2), one-armed trastuzumab antibody with heterodimeric IgG1 Fc
[7]
  pKd: 6.96
[8]
  pKd: 7.46

## Variant 32271 (trastuzumab FSA; chain A G237L_strat2, chain B G237L_strat2) (antibody)
FcγRIIaR [1]
  IIaR-fold (fold change in affinity over wild-type): 10 fold over WT
FcγRIIb [2]
  IIb-fold (fold change in affinity over wild-type): 251 fold over WT
C1q (human)
  C1q Binding (% WT): 3 % WT
FcγRIIb [3]
  IIb Selectivity (IIb-Fold/IIaR-Fold): 26

## Variant 26728 (A_P271G_strat2), one-armed trastuzumab antibody with heterodimeric IgG1 Fc
[7]
  pKd: 7.19
[8]
  pKd: 7.66

## Variant 26726 (A_D270H_strat2), one-armed trastuzumab antibody with heterodimeric IgG1 Fc
[7]
  pKd: 7.13
[8]
  pKd: 7.64

## variant 16550, one-armed trastuzumab antibody (Scaffold 2), chain A E269K, chain B L234D
FcγRIIb [4]
  IIb/IIaR Selectivity: 1.25
FcγRIIaR [5]
  IIaR-Fold (fold affinity over wild-type): 0.63 fold
FcγRIIb [6]
  IIb-Fold (fold affinity over wild-type): 0.79 fold

## variant 16577, one-armed trastuzumab antibody (Scaffold 2), chain A E269K, chain B A327G_A330S_P331S_L234F_H268Q_K274Q
FcγRIIb [4]
  IIb/IIaR Selectivity: 1.26
FcγRIIaR [5]
  IIaR-Fold (fold affinity over wild-type): 0.82 fold
FcγRIIb [6]
  IIb-Fold (fold affinity over wild-type): 1.03 fold

## Variant 26729 (A_P271A_strat2), one-armed trastuzumab antibody with heterodimeric IgG1 Fc
[7]
  pKd: 7.03
[8]
  pKd: 7.47
